Results on two substances are retold here after paper PMC2843741.

The target of this assay is GST-CypA (UniProt P62937). Kind of assay: pull-down; 35S-labelled in vitro translated proteins incubated overnight in binding buffer with about 2.0 µg purified GST fusion or GST alone; glutathione Sepharose beads; 5 washes with PBS, 0.25% NP-40; SDS-10% PAGE, fluorography.
Chain of UniProt P62937 (P62937 whole entry, the tested form may be a part): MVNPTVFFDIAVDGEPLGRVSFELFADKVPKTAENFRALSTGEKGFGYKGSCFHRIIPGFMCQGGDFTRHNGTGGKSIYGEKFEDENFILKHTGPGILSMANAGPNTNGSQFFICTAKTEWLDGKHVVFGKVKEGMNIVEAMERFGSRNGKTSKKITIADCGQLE

For “HA-wt NS5A with in-frame deletion of amino acids 361-451 (domain or fragment)”, the percent of input pulled down was 5 % of input.
Consider “HA-wt NS5A with in-frame deletion of amino acids 271-360 (domain or fragment)”, for which the percent of input pulled down is 8 to 9 % of input.
